B1: Splicing factor 1 (Homo sapiens), Q15637 (parent)
chain: MATGANATPLDFPSKKRKRSRWNQDTMEQKTVIPGMPTVIPPGLTREQERAYIVQLQIEDLTRKLRTGDLGIPPNPEDRSPSPEPIYNSEGKRLNTREFRTRKKLEEERHNLITEMVALNPDFKPPADYKPPATRVSDKVMIPQDEYPEINFVGLLIGPRGNTLKNIEKECNAKIMIRGKGSVKEGKVGRKDGQMLPGEDEPLHALVTANTMENVKKAVEQIRNILKQGIETPEDQNDLRKMQLRELARLNGTLREDDNRILRPWQSSETRSITNTTVCTKCGGAGHIASDCKFQRPGDPQSAQDKARMDKEYLSLMAELGEAPVPASVGSTSGPATTPLASAPRPAAPANNPPPPSLMSTTQSRPPWMNSGPSESRPYHGMHGGGPGGPGGGPHSFPHPLPSLTGGHGGHPMQHNPNGPPPPWMQPPPPPMNQGPHPPGHHGPPPMDQYLGSTPVGSGVYRLHQGKGMMPPPPMGMMPPPPPPPSGQPPPPPSGPLPPWQQQQQQPPPPPPPSSSMASSTPLPWQQNTTTTTTSAGTGSIPPWQQQQAAAAASPGAPQMQGNPTMVPLPPGVQPPLPPGAPPPPPPPPPGSAGMMYAPPPPPPPPMDPSNFVTMMGMGVAGMPPFGMPPAPPPPPPQN

Variants of: B1
Settings: with U2AF2, P26368
U2AF2, P26368, sequence (P26368 whole entry): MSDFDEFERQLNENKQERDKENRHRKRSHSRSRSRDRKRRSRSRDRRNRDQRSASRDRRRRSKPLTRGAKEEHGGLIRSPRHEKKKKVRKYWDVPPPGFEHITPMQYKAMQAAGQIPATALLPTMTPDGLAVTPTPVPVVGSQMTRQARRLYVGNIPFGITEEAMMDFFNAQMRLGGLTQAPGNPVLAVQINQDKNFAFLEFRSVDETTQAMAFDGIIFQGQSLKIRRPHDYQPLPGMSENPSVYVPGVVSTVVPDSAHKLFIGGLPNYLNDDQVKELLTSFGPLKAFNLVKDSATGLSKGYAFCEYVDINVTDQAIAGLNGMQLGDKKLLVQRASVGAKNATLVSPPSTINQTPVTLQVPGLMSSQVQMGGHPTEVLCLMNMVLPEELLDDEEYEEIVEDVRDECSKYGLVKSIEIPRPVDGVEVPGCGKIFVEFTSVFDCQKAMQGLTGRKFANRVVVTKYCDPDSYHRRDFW

| Variant | effect of a mutation on the interaction |
| --- | --- |
| S80A;S82A | decreasing interaction strength |
| W22A | disrupting interaction strength |
| I40R;I53R | decreasing interaction strength |
| R93E;R97E;R100E | decreasing interaction strength |
| R46D | decreasing interaction strength |

Source: IntAct's records for PubMed 23273425
